According to paper PMC7005851:

Key:
[1] = target: T1, *^#H chain of ΔLd-2C281 IgG*^#H*^#L (WT VH, all C-region Cys to Ser); assay: sandwich ELISA (anti-human Cκ capture); settings: chain shown with the change; lysates of HEK293 transfectants; empty vector est. 0.15; parent: est. 1.4; read off a plot
T1 chain: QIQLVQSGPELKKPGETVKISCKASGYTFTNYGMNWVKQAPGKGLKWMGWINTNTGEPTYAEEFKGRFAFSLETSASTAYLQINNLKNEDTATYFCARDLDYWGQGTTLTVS

[2] = target: *H chain of ΔLd-3D8 IgG1 variants ΔLd-*HL and ΔLd-*H*L (hinge Cys11 and Cys14 to Ser); assay: sandwich ELISA (Protein L capture, AP-conjugated anti-human IgG/Fc detection); settings: chain shown with the change; no heat; lysate of ΔLd-3D8 *H*L transfectants; empty vector est. 0.20; parent: est. 2.2; read off a plot
[3] = target: *^#H chain of ΔLd-3D8 IgG*^#H*^#L (WT VH, all C-region Cys to Ser); assay: sandwich ELISA (anti-human Cκ capture); settings: chain shown with the change; lysates of HEK293 transfectants; empty vector est. 0.15; parent: est. 1.7; read off a plot
[4] = target: T2, *^#H chain of ΔLd-6C407 IgG*^#H*^#L (WT VH, all C-region Cys to Ser); assay: sandwich ELISA (anti-human Cκ capture); settings: chain shown with the change; lysates of HEK293 transfectants; empty vector est. 0.15; parent: est. 1.9; read off a plot
T2 chain: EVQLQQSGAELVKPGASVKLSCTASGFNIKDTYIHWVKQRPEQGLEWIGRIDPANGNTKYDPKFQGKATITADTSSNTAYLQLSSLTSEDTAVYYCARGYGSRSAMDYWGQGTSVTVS

B1: m4 (L) and m3 (H), WT ΔLd-2C281 IgG *#H*#L: all C-region Cys of inter- and intrachain disulfide bonds to Ser (residue numbers not printed) (protein)
chain: DVVMTQTPLSLPVSLGDQASISCRSSQSLVHSNGNTYFHWFLQKPGQSPKLLIYKVSNRFSGVPDRFSGSGSGTDFTLKISRVEAEDLGVYFCSQSTHVPYTFGGGTKLEIK
response (Abs at 405 nm) [1]: 0.15

B2: m2 (L) and m1 (H), ΔLd-HL H:Cys11Ser (hinge); H:Cys14Ser (hinge); L:Cys107Ser (Cκ) (protein)
chain: DIVMSQSPSSLAVSAGEKVTMSCKSSQSLFNSRTRKNYLAWYQQKPGQSPKLLIYWASTRESGVPDRFTGSGPGTDFTLTISSVQAEDLAVYYCKQSYYHMYTFGSGTKLEIK
response (Abs at 405 nm) [2]: 2.3

B3: m2 (L) and m1 (H), WT ΔLd-3D8 IgG *#H*#L: all C-region Cys of inter- and intrachain disulfide bonds to Ser (residue numbers not printed) (protein)
chain: DIVMSQSPSSLAVSAGEKVTMSCKSSQSLFNSRTRKNYLAWYQQKPGQSPKLLIYWASTRESGVPDRFTGSGPGTDFTLTISSVQAEDLAVYYCKQSYYHMYTFGSGTKLEIK
response (Abs at 405 nm) [3]: 0.15

B4: m6 (L) and m5 (H), WT ΔLd-6C407 IgG *#H*#L: all C-region Cys of inter- and intrachain disulfide bonds to Ser (residue numbers not printed) (protein)
chain: DIVLTQSPASLAVSLGQRATISCRASKSVSTSGYSYMLWYQQKPGQPPKLLIYLASNLESGVPARFSGSGSGTDFTLNIHPVEEEDAATYYCQHSRELPWTFGGGTKLEIK
response (Abs at 405 nm) [4]: 0.15
